Data from JP2014141434A (dated 2014).
Residue numbers refer to the chain shown, from its start.

T1: マウスROBO4 (pCI−mROBO4導入細胞) (mouse, UniProt Q8C310 28-1012)
T1 construct: also called mouse ROBO4; mROBO4
T1 sequence: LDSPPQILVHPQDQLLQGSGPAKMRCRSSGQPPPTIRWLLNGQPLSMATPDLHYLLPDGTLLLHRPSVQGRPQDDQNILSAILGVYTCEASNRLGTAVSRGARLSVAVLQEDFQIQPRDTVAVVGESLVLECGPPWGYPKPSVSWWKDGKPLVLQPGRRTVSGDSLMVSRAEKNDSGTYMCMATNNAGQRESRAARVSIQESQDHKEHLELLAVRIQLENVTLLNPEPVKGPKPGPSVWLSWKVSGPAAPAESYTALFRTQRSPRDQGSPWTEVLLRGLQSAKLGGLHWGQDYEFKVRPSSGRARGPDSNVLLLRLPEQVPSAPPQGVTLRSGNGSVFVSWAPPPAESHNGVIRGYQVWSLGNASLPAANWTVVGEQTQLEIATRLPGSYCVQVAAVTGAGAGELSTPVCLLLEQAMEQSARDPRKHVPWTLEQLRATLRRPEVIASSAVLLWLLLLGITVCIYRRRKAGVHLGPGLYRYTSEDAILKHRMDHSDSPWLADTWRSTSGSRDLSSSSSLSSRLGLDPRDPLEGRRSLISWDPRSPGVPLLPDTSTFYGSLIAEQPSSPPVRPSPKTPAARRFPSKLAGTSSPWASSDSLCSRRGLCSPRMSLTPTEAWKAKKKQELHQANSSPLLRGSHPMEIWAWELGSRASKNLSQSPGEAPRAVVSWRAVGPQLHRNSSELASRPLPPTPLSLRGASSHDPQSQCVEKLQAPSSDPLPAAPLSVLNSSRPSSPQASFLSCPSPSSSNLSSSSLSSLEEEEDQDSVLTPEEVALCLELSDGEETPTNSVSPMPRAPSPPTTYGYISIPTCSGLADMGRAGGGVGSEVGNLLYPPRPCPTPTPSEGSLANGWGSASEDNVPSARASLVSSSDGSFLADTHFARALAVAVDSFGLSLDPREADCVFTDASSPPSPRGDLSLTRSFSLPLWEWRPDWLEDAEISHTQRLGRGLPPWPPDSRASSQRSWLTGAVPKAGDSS

T2: ヒトROBO3 (human, UniProt Q96MS0 21-1386)
T2 construct: also called hROBO3; pCI−hROBO3
T2 sequence: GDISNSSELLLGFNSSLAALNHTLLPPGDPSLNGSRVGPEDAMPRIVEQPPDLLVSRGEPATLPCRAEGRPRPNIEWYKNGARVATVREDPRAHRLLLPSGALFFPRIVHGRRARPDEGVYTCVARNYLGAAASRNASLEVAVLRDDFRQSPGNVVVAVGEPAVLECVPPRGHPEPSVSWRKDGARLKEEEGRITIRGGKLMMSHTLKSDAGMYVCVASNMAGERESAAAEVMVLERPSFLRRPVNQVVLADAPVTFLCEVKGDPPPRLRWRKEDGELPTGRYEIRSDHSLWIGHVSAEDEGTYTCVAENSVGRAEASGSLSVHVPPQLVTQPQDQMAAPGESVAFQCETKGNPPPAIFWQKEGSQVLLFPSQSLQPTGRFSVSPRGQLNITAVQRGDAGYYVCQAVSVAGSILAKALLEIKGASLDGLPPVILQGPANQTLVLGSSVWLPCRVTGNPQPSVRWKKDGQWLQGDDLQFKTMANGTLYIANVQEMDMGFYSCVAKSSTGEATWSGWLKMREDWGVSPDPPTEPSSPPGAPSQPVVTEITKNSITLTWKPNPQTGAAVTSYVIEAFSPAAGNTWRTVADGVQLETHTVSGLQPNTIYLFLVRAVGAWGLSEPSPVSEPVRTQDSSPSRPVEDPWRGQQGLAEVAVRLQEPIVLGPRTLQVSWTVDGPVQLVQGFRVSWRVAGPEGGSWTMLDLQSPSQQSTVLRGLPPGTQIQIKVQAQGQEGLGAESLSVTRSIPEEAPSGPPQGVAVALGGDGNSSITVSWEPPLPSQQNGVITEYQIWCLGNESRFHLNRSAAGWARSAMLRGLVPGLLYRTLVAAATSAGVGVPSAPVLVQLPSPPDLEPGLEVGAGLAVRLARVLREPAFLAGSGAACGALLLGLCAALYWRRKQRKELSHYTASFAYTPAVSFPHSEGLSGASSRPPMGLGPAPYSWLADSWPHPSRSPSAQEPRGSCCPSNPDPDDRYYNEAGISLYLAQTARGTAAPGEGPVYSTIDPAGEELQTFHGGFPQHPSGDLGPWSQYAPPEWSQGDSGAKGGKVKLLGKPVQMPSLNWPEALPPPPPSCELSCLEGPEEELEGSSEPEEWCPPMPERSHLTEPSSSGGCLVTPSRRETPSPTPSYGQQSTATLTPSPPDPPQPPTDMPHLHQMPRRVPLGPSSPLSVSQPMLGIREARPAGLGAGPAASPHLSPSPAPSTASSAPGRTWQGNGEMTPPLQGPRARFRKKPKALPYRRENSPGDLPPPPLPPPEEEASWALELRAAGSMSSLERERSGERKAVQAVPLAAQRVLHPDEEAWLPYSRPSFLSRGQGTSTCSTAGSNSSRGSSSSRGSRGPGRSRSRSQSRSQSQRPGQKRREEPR

B1: 抗ROBO4マウスモノクローナル抗体 MAb1 (antibody, V domains shown)
VH: EVQLVESGGGLVKPGGSLKLSCAASGFTFSTYAMSWVRQTPEKRLEWVATISNGGTYTYYPDSVKGRFTISRDNAENTLYLQMSSLRSEDTAMYFCARLIYYDYLDYWGHGTTLTVSS
VL: DAVMTQTPLSLPVSLGDQASISCRSSQSLENSNGNTYLNWYFQKPGQSPQLLIYRVSNRFSGVLDRFSGSGSGTDFTLKISRVEAEDFGVYFCLQVTHVPWTFGGGTKLEIKR
notes: Mouse IgG1 (gamma 1) / kappa from a hybridoma; The constant regions are not in the listing; also called MAb1
B2: ヒト化MAb1抗体 H−2143 (antibody, human IgG2, kappa, V domains shown)
VH: EVQLVESGGGLVQPGGSLRLSCAASGFTFSTYAMSWVRQAPGKRLEWVATISQGGTYTYYPDSVKGRFTISRDNAKNTLYLQMNSLRAEDTAVYYCARLIYYDYLDYWGQGTLVTVSS
VL: DIVMTQSPLSLPVTLGEPASISCRSSQSLENENKNLYLNWYLQKPGQSPQLLIYRVSNRFSGVPDRFSGSGSGTDFTLKISRVEAEDVGVYYCLQVTHVPWTFGPGTKVDIKR
notes: Humanised IgG2 / kappa; also called H-2143; hMAb1-H4 / hMAb1-L2
B3: ヒト化MAb1抗体 H−2140 (antibody, human IgG2, kappa, V domains shown)
VH: B2 VH
VL: B2 VL with E32S, K34G, L36T
notes: Humanised IgG2 / kappa; also called H-2140; hMAb1-H4 / hMAb1-L1
B4: ヒト化MAb1抗体 H−1143 (antibody, human IgG2, kappa, V domains shown)
VH: B2 VH with R44G
VL: B2 VL
notes: Humanised IgG2 / kappa; also called H-1143; hMAb1-H2 / hMAb1-L2

Target: T1, マウスROBO4 (pCI−mROBO4導入細胞)
Test: flow cytometry, transfected HEK293 cells

Binder | binding result
B1 | no binding (tested: 10 μg/mL)
B2 | no binding (tested: 10 μg/mL (method of 4)-3-2))
B3 | no binding (tested: 10 μg/mL (method of 4)-3-2))
B4 | no binding (tested: 10 μg/mL (method of 4)-3-2))

Target: T2, ヒトROBO3
Test: flow cytometry, transfected HEK293 cells

Binder | binding result
B1 | no binding (tested: 10 μg/mL)
B2 | no binding (tested: 10 μg/mL (method of 4)-4-2))
B3 | no binding (tested: 10 μg/mL (method of 4)-4-2))
B4 | no binding (tested: 10 μg/mL (method of 4)-4-2))
